From patent US20070293656A1, “COLLAGEN BINDING PEPTIDES” (Epix Pharmaceuticals, Inc., priority 2005, published 2007)
Where two headings read alike, the source gives them in different places. Bridge positions count the residues as written; N and C are the ends. Square brackets hold non-standard residues; d marks the D form. Primed or numbered codes have the meaning given here. Side chains are listed from the residue outwards. Ends that are not written are not given here. * marks the point of attachment. Bip = N[C@@H](Cc1ccc(-c2ccccc2)cc1)C(=O)O; Gd^T = not defined here; Gd^T″ = GdDTPA-thiourea; Cbz = O=C(OCc1ccccc1)*; Dap = NC[C@H](N)C(=O)O

Columns and labels:
Experiment in all cases: dried collagen assay
[1] = biological target: T1, human collagen type I (acid soluble, extracted from placenta, Sigma C7774) (human, UniProt P02452 162-1218; P08123 80-1119)
T1 construct: gelled and dried as a fibril film in the assay; also called dried human collagen; h-Collagen

[2] = biological target: T2, rat collagen (acid soluble, type I, rat tail, Upstate 08-115) (rat, UniProt P02454 152-1207; P02466 86-1125)
T2 construct: also called dried rat collagen; insoluble rat collagen

[3] = biological target: T1, human collagen type I (acid soluble, …); remark: listed apart in the source
[4] = biological target: T1, human collagen type I (acid soluble, …); remark: listed apart in the source
Experimental: (§1) An additional 90 μL is reserved in a HPLC glass vial as a measure of the total concentration.

[5] = biological target: T2, rat collagen (acid soluble, type I, rat …); remark: listed apart in the source
Experimental: as §1

[6] = biological target: T2, rat collagen (acid soluble, type I, rat …); remark: listed apart in the source

T1 sequence (P02452 162-1218 limits assumed, chain 1 of 2): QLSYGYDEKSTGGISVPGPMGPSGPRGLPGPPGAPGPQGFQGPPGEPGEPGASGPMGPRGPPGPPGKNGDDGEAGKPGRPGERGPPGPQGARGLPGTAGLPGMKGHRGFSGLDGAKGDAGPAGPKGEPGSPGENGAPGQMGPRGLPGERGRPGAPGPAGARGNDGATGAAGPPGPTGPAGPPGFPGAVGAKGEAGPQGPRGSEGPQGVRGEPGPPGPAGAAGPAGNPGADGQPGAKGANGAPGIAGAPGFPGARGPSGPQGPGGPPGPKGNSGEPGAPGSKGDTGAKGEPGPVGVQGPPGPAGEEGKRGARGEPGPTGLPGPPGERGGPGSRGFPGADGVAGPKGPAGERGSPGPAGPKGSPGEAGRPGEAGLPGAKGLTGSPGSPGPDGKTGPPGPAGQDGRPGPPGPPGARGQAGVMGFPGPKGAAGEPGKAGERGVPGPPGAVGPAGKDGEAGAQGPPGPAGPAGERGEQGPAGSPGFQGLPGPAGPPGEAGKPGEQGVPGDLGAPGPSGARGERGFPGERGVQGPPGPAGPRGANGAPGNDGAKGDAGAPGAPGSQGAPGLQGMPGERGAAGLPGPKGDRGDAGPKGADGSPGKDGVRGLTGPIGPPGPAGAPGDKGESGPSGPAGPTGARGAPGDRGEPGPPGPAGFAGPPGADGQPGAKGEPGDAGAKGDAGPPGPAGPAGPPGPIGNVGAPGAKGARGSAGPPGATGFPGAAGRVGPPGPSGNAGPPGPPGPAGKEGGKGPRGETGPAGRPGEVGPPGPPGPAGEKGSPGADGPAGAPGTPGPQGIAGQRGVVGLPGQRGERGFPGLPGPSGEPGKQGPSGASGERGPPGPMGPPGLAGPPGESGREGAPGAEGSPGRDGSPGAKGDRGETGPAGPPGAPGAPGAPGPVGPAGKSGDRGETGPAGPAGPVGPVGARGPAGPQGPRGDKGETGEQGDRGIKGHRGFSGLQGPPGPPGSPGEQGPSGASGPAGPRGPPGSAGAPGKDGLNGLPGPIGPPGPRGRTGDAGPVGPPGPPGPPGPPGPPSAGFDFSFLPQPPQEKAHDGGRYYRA
T1 sequence (P08123 80-1119 limits assumed, chain 2 of 2): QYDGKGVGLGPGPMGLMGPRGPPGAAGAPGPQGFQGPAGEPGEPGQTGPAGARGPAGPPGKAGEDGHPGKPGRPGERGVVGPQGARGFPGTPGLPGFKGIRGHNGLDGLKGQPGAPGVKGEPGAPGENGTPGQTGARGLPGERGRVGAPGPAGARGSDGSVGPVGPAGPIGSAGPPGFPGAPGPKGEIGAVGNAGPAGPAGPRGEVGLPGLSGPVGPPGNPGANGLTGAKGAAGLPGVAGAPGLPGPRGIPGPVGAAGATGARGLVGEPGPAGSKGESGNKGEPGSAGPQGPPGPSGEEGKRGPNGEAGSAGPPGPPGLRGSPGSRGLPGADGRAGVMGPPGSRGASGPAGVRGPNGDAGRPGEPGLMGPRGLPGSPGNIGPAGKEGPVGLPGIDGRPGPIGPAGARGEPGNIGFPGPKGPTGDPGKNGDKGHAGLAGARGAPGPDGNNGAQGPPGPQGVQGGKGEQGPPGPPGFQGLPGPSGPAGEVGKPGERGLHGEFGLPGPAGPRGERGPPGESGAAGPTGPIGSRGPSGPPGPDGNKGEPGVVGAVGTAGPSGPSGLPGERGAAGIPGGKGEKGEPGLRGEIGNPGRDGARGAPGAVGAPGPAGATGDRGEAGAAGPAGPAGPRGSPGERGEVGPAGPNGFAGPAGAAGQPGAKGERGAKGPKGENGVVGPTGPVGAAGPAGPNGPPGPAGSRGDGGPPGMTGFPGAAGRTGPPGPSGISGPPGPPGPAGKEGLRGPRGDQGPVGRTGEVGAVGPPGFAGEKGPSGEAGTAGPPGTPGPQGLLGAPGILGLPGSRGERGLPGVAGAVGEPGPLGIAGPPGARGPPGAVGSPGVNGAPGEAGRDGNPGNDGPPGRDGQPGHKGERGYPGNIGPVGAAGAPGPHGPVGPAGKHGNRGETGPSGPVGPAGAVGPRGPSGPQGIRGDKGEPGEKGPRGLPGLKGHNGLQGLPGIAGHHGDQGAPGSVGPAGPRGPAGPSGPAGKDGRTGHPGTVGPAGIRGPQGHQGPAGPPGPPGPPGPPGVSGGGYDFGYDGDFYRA
T2 sequence (P02454 152-1207 limits assumed, chain 1 of 2): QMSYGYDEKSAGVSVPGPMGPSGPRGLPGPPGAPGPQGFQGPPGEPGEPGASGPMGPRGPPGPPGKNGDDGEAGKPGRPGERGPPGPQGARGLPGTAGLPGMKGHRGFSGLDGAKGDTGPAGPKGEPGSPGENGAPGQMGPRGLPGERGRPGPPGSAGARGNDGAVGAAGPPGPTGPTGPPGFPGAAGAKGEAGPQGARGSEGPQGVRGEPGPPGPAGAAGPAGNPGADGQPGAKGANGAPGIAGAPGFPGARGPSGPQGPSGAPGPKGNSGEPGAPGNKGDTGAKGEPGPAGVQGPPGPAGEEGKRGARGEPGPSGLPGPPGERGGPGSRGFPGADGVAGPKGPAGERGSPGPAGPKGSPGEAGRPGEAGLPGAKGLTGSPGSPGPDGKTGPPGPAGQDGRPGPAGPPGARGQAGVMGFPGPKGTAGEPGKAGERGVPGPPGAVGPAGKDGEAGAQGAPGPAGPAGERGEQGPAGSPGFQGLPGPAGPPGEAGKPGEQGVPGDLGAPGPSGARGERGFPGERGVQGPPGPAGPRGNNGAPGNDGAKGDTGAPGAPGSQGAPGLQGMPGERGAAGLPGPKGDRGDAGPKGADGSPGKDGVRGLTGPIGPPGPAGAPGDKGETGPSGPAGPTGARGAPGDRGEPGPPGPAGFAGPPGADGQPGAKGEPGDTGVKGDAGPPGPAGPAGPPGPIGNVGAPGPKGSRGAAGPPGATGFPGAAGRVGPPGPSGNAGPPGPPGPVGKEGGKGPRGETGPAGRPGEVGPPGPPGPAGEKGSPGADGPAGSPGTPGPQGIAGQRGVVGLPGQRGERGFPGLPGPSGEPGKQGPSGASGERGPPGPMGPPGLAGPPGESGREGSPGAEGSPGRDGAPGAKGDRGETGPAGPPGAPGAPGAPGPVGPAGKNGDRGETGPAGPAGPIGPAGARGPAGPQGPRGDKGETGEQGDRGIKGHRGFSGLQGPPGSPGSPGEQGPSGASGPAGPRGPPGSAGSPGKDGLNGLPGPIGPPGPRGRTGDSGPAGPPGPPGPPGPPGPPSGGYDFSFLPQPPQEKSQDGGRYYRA
T2 sequence (P02466 86-1125 limits assumed, chain 2 of 2): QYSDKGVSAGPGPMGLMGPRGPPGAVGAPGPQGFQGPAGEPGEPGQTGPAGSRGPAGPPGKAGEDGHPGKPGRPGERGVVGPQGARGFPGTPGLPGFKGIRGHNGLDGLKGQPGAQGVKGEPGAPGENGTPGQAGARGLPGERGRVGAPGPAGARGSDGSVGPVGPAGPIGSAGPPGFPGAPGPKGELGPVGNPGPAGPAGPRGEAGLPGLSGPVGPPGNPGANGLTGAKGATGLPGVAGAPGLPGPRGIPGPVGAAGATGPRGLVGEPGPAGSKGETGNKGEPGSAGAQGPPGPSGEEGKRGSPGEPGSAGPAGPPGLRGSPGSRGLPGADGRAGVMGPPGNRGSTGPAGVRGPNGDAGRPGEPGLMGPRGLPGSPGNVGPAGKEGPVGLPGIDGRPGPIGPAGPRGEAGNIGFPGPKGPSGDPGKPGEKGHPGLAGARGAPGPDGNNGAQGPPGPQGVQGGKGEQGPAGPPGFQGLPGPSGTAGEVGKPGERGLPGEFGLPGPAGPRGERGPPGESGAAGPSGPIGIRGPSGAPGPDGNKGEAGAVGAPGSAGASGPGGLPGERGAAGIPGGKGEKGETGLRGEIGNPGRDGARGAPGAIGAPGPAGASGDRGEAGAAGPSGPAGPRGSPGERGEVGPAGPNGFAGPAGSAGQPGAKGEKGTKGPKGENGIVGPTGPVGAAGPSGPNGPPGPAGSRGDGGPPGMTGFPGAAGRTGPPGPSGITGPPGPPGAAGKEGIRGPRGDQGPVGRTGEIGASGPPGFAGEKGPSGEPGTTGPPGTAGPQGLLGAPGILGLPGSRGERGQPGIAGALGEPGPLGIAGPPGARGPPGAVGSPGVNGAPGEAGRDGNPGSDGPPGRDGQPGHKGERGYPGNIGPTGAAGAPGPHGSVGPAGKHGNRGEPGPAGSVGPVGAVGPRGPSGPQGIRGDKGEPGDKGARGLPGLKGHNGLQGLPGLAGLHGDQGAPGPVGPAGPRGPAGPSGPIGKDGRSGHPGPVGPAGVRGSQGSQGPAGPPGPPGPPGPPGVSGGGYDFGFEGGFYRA

Binder	% bound [1] [%]	% bound [2] [%]	% bound [3] [%]	other results
DWTCSGDHLTWHCNYG (disulfide 4-13 (inferred)) [SEQ ID NO: 116]	58	35		
DWTCSGDHLTWKCNYG (disulfide 4-13 (inferred)) [SEQ ID NO: 117]	38	24		
{Gd^T″}-GK([Gly-Gd^T″])WHCTTYFPHH[Bip]CLYG (disulfide 5-14; not fully specified (C-terminus); printed as Gd^T-G-K(G.Gd^T)-WHCTTYFPHH-Bip-CLYG) [Comp ID 951]			45	
YHACYQAGCWIY (disulfide 4-9 (inferred)) [SEQ ID NO: 106]				% bound [4]: 9%; % bound [5]: 24%
YSACYQAGCYIY (disulfide 4-9 (inferred)) [SEQ ID NO: 110]				% bound [4]: 10%; % bound [5]: 2%
Cbz-GQWHCT[Dap](Gd^T″)RFPHHYCLYG (disulfide 5-14; not fully specified (C-terminus); printed as cbz-GQWHCT-Dpr(Gd^T)-RFPHHYCLYG) [Comp ID 939]			4	% bound [6]: 5%
DWTCSGDPYTWHCNYE (disulfide 4-13 (inferred)) [SEQ ID NO: 115]	39	23		
DWTCSGDEFTWHCNYE (disulfide 4-13 (inferred)) [SEQ ID NO: 119]	55	55		
YSACYQAGCWIW (disulfide 4-9 (inferred)) [SEQ ID NO: 109]				% bound [4]: 21%; % bound [5]: 37%
WTCSGDEYTWHCNYE (disulfide 3-12 (inferred)) [SEQ ID NO: 114]	19	14		
DWTCSGNHLTWYCNYG (disulfide 4-13 (inferred)) [SEQ ID NO: 118]	68	67		
GQWHCTTSFPHHYCLYG (not fully specified; Gd^T-GQWHCTTSFPHHYCLYG) [Comp ID 869]			46	% bound [6]: 37%
{Gd^T}-GQWHCT[dR]RFPHHYCLYG (disulfide 5-14 (inferred); not fully specified (C-terminus); printed as Gd^T-GQWHCTrRFPHHYCLYG; reading uncertain) [Comp ID 900]			4	
{Gd^T}-GQWHCT[dN]RFPHHYCLYG (disulfide 5-14 (inferred); not fully specified (C-terminus); printed as Gd^T-GQWHCTnRFPHHYCLYG; reading uncertain) [Comp ID 897]			4	
{Gd^T}-GQWHCT[dS]RFPHHYCLYG (disulfide 5-14 (inferred); not fully specified (C-terminus); printed as Gd^T-GQWHCTsRFPHHYCLYG; reading uncertain) [Comp ID 898]			5	
